Series [1] has as its system T1, E1-2-ABE8e (Neisseria meningitidis).
T1 sequence: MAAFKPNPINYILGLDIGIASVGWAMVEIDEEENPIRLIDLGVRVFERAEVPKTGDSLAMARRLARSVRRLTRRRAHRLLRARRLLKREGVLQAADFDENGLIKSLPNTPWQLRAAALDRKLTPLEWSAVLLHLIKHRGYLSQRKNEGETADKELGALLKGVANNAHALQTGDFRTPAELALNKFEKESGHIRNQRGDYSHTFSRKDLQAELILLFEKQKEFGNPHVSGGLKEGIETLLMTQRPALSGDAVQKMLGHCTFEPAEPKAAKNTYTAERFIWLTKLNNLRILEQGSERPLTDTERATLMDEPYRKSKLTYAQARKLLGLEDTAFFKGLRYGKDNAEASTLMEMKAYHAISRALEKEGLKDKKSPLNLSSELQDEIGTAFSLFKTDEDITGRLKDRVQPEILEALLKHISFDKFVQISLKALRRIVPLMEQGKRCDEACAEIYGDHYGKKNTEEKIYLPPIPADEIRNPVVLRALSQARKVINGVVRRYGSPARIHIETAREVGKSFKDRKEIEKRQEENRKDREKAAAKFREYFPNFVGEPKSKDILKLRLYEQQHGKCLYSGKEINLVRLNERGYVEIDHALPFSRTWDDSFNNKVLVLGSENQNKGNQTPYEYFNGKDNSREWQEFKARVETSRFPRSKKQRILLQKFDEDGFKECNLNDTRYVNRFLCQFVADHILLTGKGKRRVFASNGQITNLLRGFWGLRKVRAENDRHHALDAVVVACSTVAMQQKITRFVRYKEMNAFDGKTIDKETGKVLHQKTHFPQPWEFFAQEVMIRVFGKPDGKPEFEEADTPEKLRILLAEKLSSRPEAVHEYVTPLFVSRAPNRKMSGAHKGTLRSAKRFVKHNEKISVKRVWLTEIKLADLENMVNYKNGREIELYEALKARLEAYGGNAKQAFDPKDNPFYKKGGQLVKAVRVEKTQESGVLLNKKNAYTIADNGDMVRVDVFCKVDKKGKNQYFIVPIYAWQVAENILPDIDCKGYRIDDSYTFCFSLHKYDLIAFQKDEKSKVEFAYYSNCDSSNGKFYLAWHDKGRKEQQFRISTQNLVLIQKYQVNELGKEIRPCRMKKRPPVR
Kind of series: cell_activity. The note with it: PAM N4YNC average, E. coli ABE-PPA; 14% on N4YND.

For series [2], the system named is T2, eNme2-C-dABE8e (Neisseria meningitidis).
T2 sequence: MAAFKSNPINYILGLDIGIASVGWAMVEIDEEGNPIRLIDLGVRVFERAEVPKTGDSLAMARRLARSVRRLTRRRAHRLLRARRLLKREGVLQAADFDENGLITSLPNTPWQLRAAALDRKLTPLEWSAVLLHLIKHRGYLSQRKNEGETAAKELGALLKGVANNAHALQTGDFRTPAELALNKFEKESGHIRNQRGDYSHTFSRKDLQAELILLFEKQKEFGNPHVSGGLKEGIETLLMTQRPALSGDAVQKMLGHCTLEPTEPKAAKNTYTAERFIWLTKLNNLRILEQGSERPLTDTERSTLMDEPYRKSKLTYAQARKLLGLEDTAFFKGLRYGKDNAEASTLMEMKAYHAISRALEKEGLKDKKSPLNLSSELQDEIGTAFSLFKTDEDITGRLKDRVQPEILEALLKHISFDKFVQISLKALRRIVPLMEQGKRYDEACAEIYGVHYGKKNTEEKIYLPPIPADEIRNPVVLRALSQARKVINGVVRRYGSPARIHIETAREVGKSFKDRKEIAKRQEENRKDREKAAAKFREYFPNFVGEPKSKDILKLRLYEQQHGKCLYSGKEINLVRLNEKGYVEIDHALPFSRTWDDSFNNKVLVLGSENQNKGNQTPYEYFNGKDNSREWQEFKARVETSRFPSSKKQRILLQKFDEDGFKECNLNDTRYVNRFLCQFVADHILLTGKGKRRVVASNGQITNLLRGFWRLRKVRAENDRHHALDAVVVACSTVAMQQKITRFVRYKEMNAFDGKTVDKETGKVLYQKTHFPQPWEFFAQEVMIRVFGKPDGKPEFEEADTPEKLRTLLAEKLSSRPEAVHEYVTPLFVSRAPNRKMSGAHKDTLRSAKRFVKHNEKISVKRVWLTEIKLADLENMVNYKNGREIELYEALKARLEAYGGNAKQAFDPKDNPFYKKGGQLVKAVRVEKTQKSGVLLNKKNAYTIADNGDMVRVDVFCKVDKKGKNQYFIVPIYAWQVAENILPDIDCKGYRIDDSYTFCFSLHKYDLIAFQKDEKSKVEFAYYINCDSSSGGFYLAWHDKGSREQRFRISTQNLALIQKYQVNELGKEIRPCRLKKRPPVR
Kind of series: cell_activity. The note with it: all N4CN PAMs, E. coli ABE-PPA.

Consider one sequence from patent US20250027114.

In the case of “AUGGCCCAGACUGAGCACGUGAGGUUGUAGCUCCCUUUCUCAUUUCGGAAACGAAAUGAGAACCGUUGCUACAAUAAGGCCGUCUGAAAAGAUGUGCCGCAACGCUCUGCCCCUUAAAGCUUCUGCUUUAAGGGGCAUCGUUUA / ATGGCCCAGACTGAGCACGTGA / TCACGTGCTCAGTCTGGGCCAT [ABE-PPA sgRNA ; ABE-PPA protospacer library target]”, the activity (% A-to-G conversion) in series [1] was 29; in series [2], above 80.
